Blank lines part the entries; values can stand above or below the molecule they belong to.
Key:
[1] = known values for commercially available antibodies (FIG. 19); cited from earlier work
[2] = system: cystic fibrosis; conditions: J Cyst Fibros. 2013; cited from earlier work
[3] = system: COPD; conditions: Am J Respir Crit Care Med. 2015; worsened in the placebo group; cited from earlier work
[4] = system: soluble forms of FcγRIa and FcγRIIIa in human and cynomolgus monkey; assay: Binding to various FcγRs (BIACORE T200); conditions: 20° C., HBS-EP+ (FIG. 27)
Description: Soluble FcγRIa and FcγRIIIa in both human and cynomolgus monkey were produced in the form of His-tagged molecules by methods known to those of ordinary skill in the art. […] Next, soluble FcγRIa or FcγRIIIa was injected with a running buffer (used as a reference solution), and was made to interact with the antibodies captured onto the sensor chip. HBS-EP+ (GE Healthcare) was used as the running buffer, and HBS-EP+ was also used to dilute the soluble FcγRIa or FcγRIIIa. […] All measurements were carried out at 20° C.

Molecule: Alemtuzumab [Campath]
frequency of ADA development in humans [1]: 45%

Molecule: Daclizumab [Zenapax]
frequency of ADA development in humans [1]: 14%

Molecule: O=C(Nc1ccc(Cl)c(S(=O)(=O)N2CCNCC2)c1O)Nc1cccc(F)c1Cl [Elubrixin]
topical neutrophil migration in cystic fibrosis [2]: Topical neutrophil migration was observed to be suppressed

Molecule: CC[C@@H](Nc1c(Nc2cccc(C(=O)N(C)C)c2O)c(=O)c1=O)c1ccc(C)o1 [MK7123]
pulmonary function (FEV1) in COPD patients [3]: pulmonary function (FEV1) was improved in the active drug group

binding to FcγRs (hFcγRIa, hFcγRIIIa, cynoFcγRIa, cynoFcγRIIIa) [4]: bind to all FcγRs
B1: H1009/L395-F1886m: variable region of H1009/L395 with Fc variant F1886m (antibody)
heavy: QVQLVESGGGLVQPGGSLRLSCAASGFTFSDYYLSWVRQAPGKGLEWVGLIRNKDNYHTPEYSASVKGRFTISRDDSKNSLYLTMSDLKTEDTAVYYCARENHRYDVELAYWGQGTLVTVSSASTKGPSVFPLAPSSKSTSGGTAALGCLVKDYFPEPVTVSWNSGALTSGVHTFPAVLQSSGLYSLSSVVTVPSSSLGTQTYICNVNHKPSNTKVDKKVEPKSCDKTHTCPPCPAPELLGGPSVFLFPPKPKDTLMISRTPEVTCVVVDVSHEDPEVKFNWYVDGVEVHNAKTKPREEQYNSTYRVVSVLTVLHQDWLNGKEYKCKVSNKALPAPIEKTISKAKGQPREPQVYTLPPSREEMTKNQVSLTCLVKGFYPSDIAVEWESNGQPENNYKTTPPVLDSDGSFFLYSKLTVDKSRWQQGNVFSCSVLHEALHAHTTRKELSLSP
light: DIQMTQSPSSLSASVGDRVTITCRASEIIYSYLAWYQQKPGKAPKLLIYKAKTHADGVPSRFSGSGSGTDFTFTISSLQPEDIATYYCKHHFGFPRTFGQGTKVEIKRTVAAPSVFIFPPSDEQLKSGTASVVCLLNNFYPREAKVQWKVDNALQSGNSQESVTEQDSKDSTYSLSSTLTLSKADYEKHKVYACEVTHQGLSSPVTKSFNRGEC

From patent publication US20240083996A1, “COMPOSITION FOR PROPHYLAXIS OR TREATMENT OF IL-8 RELATED DISEASES” (Chugai Seiyaku Kabushiki Kaisha, priority 2016, published 2024)
